Paper PMC9828637, “Pol32, an accessory subunit of DNA polymerase delta, plays an essential role in genome stability and pathogenesis of Candida albicans” (Gut Microbes, 2023)

Biological target: T1, CaPol32 (wild type, GST tag cleaved) (C. albicans, UniProt A0A1D8PDM8 1-403)
T1 construct: Pol32, smallest subunit of DNA polymerase delta, C. albicans SC5314; ORF amplified from genomic DNA with primers NAP39 (start codon) and NAP40 (stop codon); length 403 aa, 46.0 kDa; source: S. cerevisiae protease deficient strain, purified (glutathione-Sepharose 4B, GST cleaved with PreScission protease); not shown: GST, N-terminal, cleaved
T1 sequence (looked up): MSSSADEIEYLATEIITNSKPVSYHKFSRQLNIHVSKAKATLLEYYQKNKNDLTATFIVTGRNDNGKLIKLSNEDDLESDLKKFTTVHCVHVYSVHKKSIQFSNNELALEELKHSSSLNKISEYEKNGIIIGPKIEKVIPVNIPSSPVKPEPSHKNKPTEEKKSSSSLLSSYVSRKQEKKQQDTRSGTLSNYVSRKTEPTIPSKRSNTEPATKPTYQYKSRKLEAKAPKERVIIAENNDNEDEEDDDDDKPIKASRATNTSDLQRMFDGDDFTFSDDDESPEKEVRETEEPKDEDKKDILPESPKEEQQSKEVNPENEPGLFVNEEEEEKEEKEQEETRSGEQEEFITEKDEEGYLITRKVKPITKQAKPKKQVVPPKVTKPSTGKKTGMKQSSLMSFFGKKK
Assay: ITC; MicroCal PEAQ-ITC, 25°C, 20 mM HEPES pH 7.4, 150 mM NaCl; 20 μM CaPol32 or CaPol32 (F398A, F399A) in the cell, 250 μM CaPCNA in the syringe, 25 injections of 1.5 μl; one-site binding model
Conditions: both partners purified

B1: CaPCNA (natural protein, C. albicans, UniProt Q5AMN0 1-259, looked up)
chain: MLEGKFEEAALLKKVVEAIKDCVKKCNFNCSEHGITVQAVDDSRVLLVSLLIGQTSFSEYRCDRDVTLGIDLESFSKIIKSANNEDFLTLLAEDSPDQIMAILEEKQKEKISEYSLKLMDIDSEFLQIDDMEYDAVVNMPSSDFAKLVRDLKNLSESLRVVVTKDSVKFTSEGDSGSGSVILKPYTNLKNERESVTISLDDPVDLTFGLKYLNDIVKAATLSDVITIKLADKTPALFEFKMQSGGYLRFYLAPKFDDDE
notes: PCNA (proliferating cell nuclear antigen, DNA sliding clamp), C. albicans; it calls PCNA trimeric without measuring this here; also called proliferating cell nuclear antigen of C. albicans; source: E. coli BL21 DE3, purified (glutathione-Sepharose 4B, GST cleaved with PreScission protease)
- Kd: ~6.75 µM
- dH: ~-27 kcal/mol
- stoichiometry N: 1 CaPol32 per PCNA trimer
